Test results reported in US20230055408A1 (JIANGSU HENGRUI MEDICINE, published 2023).

What was measured:
[1] = molecular target: T1, human CEACAM1 expressed on CHO cell surface (human, UniProt P13688 35-526); assay: FACS, CEACAM1-CHO cells
T1 construct: also called CEACAM1-CHO
T1 sequence: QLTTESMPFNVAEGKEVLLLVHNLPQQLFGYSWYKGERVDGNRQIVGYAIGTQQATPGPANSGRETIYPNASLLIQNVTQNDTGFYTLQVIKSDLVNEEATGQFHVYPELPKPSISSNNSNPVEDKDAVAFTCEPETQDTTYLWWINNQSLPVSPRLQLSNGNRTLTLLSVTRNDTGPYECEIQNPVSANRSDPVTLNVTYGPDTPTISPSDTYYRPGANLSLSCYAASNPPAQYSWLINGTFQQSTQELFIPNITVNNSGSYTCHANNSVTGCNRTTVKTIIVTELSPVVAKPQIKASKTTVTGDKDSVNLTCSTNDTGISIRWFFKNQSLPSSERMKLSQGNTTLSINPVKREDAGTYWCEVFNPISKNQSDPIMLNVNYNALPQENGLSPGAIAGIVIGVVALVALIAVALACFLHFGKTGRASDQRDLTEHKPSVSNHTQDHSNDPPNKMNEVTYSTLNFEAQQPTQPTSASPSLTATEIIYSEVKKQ

[2] = molecular target: T2, monkey CEA expressed on CHO cell surface (cynomolgus monkey); assay: FACS, cynoCEA-CHO cells
T2 construct: also called cynoCEA-CHO; monkey CEA proteins on the cell surface
T2 chain: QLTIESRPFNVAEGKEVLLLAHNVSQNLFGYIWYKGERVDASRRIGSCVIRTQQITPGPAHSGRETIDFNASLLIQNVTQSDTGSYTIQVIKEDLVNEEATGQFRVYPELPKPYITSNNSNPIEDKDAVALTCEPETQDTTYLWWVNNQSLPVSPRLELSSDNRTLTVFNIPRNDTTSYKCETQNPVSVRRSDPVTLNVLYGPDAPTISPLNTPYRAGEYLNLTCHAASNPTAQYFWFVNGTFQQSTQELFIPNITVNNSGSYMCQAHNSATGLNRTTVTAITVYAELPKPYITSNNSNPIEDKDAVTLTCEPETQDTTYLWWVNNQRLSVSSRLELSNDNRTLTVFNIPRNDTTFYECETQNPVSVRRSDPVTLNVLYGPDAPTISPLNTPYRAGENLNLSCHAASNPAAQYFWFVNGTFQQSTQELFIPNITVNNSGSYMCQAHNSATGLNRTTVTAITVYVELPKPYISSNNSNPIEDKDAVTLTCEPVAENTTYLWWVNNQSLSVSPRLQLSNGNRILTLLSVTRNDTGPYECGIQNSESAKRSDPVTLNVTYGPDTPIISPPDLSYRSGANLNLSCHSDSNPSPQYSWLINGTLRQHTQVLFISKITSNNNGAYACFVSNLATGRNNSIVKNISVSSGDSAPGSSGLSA

[3] = molecular target: T3, human CEA protein on the cell surface (human, UniProt P06731 35-685); assay: FACS, MKN45 cells
T3 construct: whole, on cells; also called CEACAM-5; CD66e
T3 sequence (looked up): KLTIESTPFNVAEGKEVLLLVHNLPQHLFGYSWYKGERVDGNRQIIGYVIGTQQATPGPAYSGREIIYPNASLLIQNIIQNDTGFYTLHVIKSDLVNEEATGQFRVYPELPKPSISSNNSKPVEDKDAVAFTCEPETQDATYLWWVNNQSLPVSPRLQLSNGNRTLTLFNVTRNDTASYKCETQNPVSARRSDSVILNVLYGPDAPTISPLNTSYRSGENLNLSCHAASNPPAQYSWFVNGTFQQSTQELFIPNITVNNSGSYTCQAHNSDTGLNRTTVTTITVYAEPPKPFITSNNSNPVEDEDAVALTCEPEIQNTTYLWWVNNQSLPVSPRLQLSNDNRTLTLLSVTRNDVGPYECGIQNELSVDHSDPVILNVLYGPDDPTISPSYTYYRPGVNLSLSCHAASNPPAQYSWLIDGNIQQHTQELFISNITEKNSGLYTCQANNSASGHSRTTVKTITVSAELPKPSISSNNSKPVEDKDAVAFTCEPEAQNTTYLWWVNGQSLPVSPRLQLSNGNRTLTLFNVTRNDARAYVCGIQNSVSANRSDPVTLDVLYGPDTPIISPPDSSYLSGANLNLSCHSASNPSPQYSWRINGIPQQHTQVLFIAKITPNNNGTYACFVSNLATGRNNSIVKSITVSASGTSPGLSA

[4] = molecular target: T3, human CEA protein on the cell surface; assay: FACS, MKN45 cells, -/+ 5 ug/mL sCEA as competitor
Description: The gradient-diluted antibody and the pre-incubated mixed solution of the antibody and sCEA was added into each well. The plate was incubated at 4° C. for 60 min and centrifuged, and the supernatant was removed. The cells were washed twice with pre-cooled PBS containing FBS at final concentration 10%. 50 μL of 1:200 diluted secondary antibody Alexa Fluor@488 goat anti-human IgG (H+L) (Lifetechologies, Cat #A11013) was added. […] The cells were washed twice with 250 μL of pre-cooled PBS with FBS at final concentration 10%. 100 μL of pre-cooled PBS was added to each well to resuspend the cells. The suspension was analyzed by a flow cytometer (FACS) (BD, FACSverse) for fluorescence signal values.

B1: mAb103 (antibody, V domains shown)
VH: QIQLVQSGPELKKPGETVKISCKASGYTFTTYGVIWVKQAPGKGLKWMGWINTYSGVPTYADDFKGRFAFSLETSASTAFLQINNLKNEDTATYFCARKKTLTTVTPWFAYWGQGTLVTVSA
VL: DLVVTQSSSASFSLGASAKLTCTLSSQHSTYTIEWYQQQPLKPPKYVMELKKDGSHSTGDGIPDRFSGSSSGADRYLTISNIQPEDEAIYICGVGNTIKEQFVYVFGGGTKVTVL
notes: Murine hybridoma antibody
In the case of B1, the binding result [1] is reported as “no binding”, the EC50 [2] is reported as 0.71 nM and the EC50 [3] is reported as 3.94 nM. The “maximum ratio of fluorescence signals (absence of sCEA / presence of sCEA)” value [4] was 1.02.

B2: mAb63 (antibody, V domains shown)
VH: EVQLQQSGPELVKPGASVKMSCKASGYTFTDFYMNWVRQSHGKSLEWIGDIFPKNGNTDYNRKFKDKATLTVDKSSNTVYMEFRSLTLEDSAIYFCARSGYGNYVFDYWGQGTIFTVSS
VL: DVQMTQTPSALSASLGDRVTISCRTSQDINIYLNWYQQKPDGTVKLLIYYRSGLLSGVPSRFSGSGSGTDYSLTISNLEPEDIATYFCQQGNTLPPTFGGGTKLEIK
notes: Murine hybridoma antibody
In the case of B2, the binding result [1] is reported as “no binding”, the EC50 [2] is reported as 2.88 nM and the EC50 [3] is reported as 3.62 nM. For the same binder, the “maximum ratio of fluorescence signals (absence of sCEA / presence of sCEA)” value [4] was 1.43.
